According to patent US11965039B2, “Compstatin analogues and their medical uses” (priority 2018, dated 2024):
Starred links: 1 amine or outer side, 2 acyl side, 3 side chain; linkers in the order of their positions; H or OH if unused. Positions of bridges follow the written chain, without caps; N, C: chain ends. Non-standard residues stand in square brackets, D forms with d. Groups on a side chain read outwards from the residue. No end group written: not given here. *: point of attachment. X1 = K(γGlu-G-γGlu-17-carboxy-heptadecanoyl), O=C(O)CCCCCCCCCCCCCCCCC(=O)N[C@@H](CCC(=O)NCC(=O)N[C@@H](CCC(=O)NCCCC[C@H](N[*:1])C(=O)[*:2])C(=O)O)C(=O)O; Trp(1-Me) = Cn1cc(C[C@H](N)C(=O)O)c2ccccc21; C18 diacid = O=C(O)CCCCCCCCCCCCCCCCC(=O)*; γGlu = O=C(O)[C@H](CCC(=O)[*:2])N[*:1]; AEEA = NCCOCCOCC(=O)O; Sar = CNCC(=O)O

B1: Compound 141 (peptide)
peptide: Ac-SEFCI[Trp(1-Me)]QDWGEHRC[Sar]EGESESK([γGlu-C18 diacid])-NH2
modifications: disulfide 4-14
SMILES: CC[C@H](C)[C@@H]1NC(=O)[C@@H](NC(=O)[C@H](Cc2ccccc2)NC(=O)[C@H](CCC(=O)O)NC(=O)[C@H](CO)NC(C)=O)CSSC[C@@H](C(=O)N(C)CC(=O)N[C@@H](CCC(=O)O)C(=O)NCC(=O)N[C@@H](CCC(=O)O)C(=O)N[C@@H](CO)C(=O)N[C@@H](CCC(=O)O)C(=O)N[C@@H](CO)C(=O)N[C@@H](CCCCNC(=O)CC[C@H](NC(=O)CCCCCCCCCCCCCCCCC(=O)O)C(=O)O)C(N)=O)NC(=O)[C@H](CCCNC(=N)N)NC(=O)[C@H](Cc2c[nH]cn2)NC(=O)[C@H](CCC(=O)O)NC(=O)CNC(=O)[C@H](Cc2c[nH]c3ccccc23)NC(=O)[C@H](CC(=O)O)NC(=O)[C@H](CCC(N)=O)NC(=O)[C@H](Cc2cn(C)c3ccccc23)NC1=O
B2: Compound 142 (peptide)
peptide: Ac-SEFCI[Trp(1-Me)]QDWGEHRCTEGE
modifications: disulfide 4-14; not fully specified (C-terminus); printed as Ac-SEFC(1)I[1-Me-Trp]QDWGEHRC(1)TEGE[Peg3]ES-K([17-carboxy-heptadecanoyl][γGlu])-NH2
B3: Compound 140 (peptide)
peptide: Ac-SEFCI[Trp(1-Me)]QDWGEHRC[Sar]EGE[AEEA]ES-{X1-NH2}
modifications: disulfide 4-14
SMILES: CC[C@H](C)[C@@H]1NC(=O)[C@@H](NC(=O)[C@H](Cc2ccccc2)NC(=O)[C@H](CCC(=O)O)NC(=O)[C@H](CO)NC(C)=O)CSSC[C@@H](C(=O)N(C)CC(=O)N[C@@H](CCC(=O)O)C(=O)NCC(=O)N[C@@H](CCC(=O)O)C(=O)NCCOCCOCC(=O)N[C@@H](CCC(=O)O)C(=O)N[C@@H](CO)C(=O)N[C@@H](CCCCNC(=O)CC[C@H](NC(=O)CNC(=O)CC[C@H](NC(=O)CCCCCCCCCCCCCCCCC(=O)O)C(=O)O)C(=O)O)C(N)=O)NC(=O)[C@H](CCCNC(=N)N)NC(=O)[C@H](Cc2c[nH]cn2)NC(=O)[C@H](CCC(=O)O)NC(=O)CNC(=O)[C@H](Cc2c[nH]c3ccccc23)NC(=O)[C@H](CC(=O)O)NC(=O)[C@H](CCC(N)=O)NC(=O)[C@H](Cc2cn(C)c3ccccc23)NC1=O
B4: Compound 23 (peptide)
peptide: Ac-FCIWQDWGEHRCT-NH2
modifications: disulfide 2-12
SMILES: CC[C@H](C)[C@@H]1NC(=O)[C@@H](NC(=O)[C@H](Cc2ccccc2)NC(C)=O)CSSC[C@@H](C(=O)N[C@H](C(N)=O)[C@@H](C)O)NC(=O)[C@H](CCCNC(=N)N)NC(=O)[C@H](Cc2c[nH]cn2)NC(=O)[C@H](CCC(=O)O)NC(=O)CNC(=O)[C@H](Cc2c[nH]c3ccccc23)NC(=O)[C@H](CC(=O)O)NC(=O)[C@H](CCC(N)=O)NC(=O)[C@H](Cc2c[nH]c3ccccc23)NC1=O
B5: Compound 139 (peptide)
peptide: Ac-SEFCI[Trp(1-Me)]QDWGEHRC[Sar]EGESESK([γGlu-Gly-γGlu-C18 diacid])-NH2
modifications: disulfide 4-14
SMILES: CC[C@H](C)[C@@H]1NC(=O)[C@@H](NC(=O)[C@H](Cc2ccccc2)NC(=O)[C@H](CCC(=O)O)NC(=O)[C@H](CO)NC(C)=O)CSSC[C@@H](C(=O)N(C)CC(=O)N[C@@H](CCC(=O)O)C(=O)NCC(=O)N[C@@H](CCC(=O)O)C(=O)N[C@@H](CO)C(=O)N[C@@H](CCC(=O)O)C(=O)N[C@@H](CO)C(=O)N[C@@H](CCCCNC(=O)CC[C@H](NC(=O)CNC(=O)CC[C@H](NC(=O)CCCCCCCCCCCCCCCCC(=O)O)C(=O)O)C(=O)O)C(N)=O)NC(=O)[C@H](CCCNC(=N)N)NC(=O)[C@H](Cc2c[nH]cn2)NC(=O)[C@H](CCC(=O)O)NC(=O)CNC(=O)[C@H](Cc2c[nH]c3ccccc23)NC(=O)[C@H](CC(=O)O)NC(=O)[C@H](CCC(N)=O)NC(=O)[C@H](Cc2cn(C)c3ccccc23)NC1=O

What follows are binders tested against T1, Human C3 (Complement tech cat #A113c) (human, UniProt P01024 23-1663) (assay: SPR (Biacore T200), human C3 immobilised, peptide injected, 1:1 fit).
T1 construct: Purified protein immobilised by amine coupling in the SPR assay; in the haemolysis assay it is the C3 of diluted human serum; Native C3 consists of a beta and an alpha chain cut from one precursor; also called C3 protein
How it was run: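 Human C3 amine-coupled on CM5 chips to about 3000 RU. Multi-cycle runs on Biacore T200 at 25° C: peptides at 6-8 rising concentrations, 60-120 s at 30 µL/min in 10 mM Tris pH 7.4, 150 mM NaCl, 0.05% Tween20, dissociation up to 10 min; 3 M MgCl2 regeneration. Kd derived.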

T1 sequence (P01024 23-1663 limits assumed): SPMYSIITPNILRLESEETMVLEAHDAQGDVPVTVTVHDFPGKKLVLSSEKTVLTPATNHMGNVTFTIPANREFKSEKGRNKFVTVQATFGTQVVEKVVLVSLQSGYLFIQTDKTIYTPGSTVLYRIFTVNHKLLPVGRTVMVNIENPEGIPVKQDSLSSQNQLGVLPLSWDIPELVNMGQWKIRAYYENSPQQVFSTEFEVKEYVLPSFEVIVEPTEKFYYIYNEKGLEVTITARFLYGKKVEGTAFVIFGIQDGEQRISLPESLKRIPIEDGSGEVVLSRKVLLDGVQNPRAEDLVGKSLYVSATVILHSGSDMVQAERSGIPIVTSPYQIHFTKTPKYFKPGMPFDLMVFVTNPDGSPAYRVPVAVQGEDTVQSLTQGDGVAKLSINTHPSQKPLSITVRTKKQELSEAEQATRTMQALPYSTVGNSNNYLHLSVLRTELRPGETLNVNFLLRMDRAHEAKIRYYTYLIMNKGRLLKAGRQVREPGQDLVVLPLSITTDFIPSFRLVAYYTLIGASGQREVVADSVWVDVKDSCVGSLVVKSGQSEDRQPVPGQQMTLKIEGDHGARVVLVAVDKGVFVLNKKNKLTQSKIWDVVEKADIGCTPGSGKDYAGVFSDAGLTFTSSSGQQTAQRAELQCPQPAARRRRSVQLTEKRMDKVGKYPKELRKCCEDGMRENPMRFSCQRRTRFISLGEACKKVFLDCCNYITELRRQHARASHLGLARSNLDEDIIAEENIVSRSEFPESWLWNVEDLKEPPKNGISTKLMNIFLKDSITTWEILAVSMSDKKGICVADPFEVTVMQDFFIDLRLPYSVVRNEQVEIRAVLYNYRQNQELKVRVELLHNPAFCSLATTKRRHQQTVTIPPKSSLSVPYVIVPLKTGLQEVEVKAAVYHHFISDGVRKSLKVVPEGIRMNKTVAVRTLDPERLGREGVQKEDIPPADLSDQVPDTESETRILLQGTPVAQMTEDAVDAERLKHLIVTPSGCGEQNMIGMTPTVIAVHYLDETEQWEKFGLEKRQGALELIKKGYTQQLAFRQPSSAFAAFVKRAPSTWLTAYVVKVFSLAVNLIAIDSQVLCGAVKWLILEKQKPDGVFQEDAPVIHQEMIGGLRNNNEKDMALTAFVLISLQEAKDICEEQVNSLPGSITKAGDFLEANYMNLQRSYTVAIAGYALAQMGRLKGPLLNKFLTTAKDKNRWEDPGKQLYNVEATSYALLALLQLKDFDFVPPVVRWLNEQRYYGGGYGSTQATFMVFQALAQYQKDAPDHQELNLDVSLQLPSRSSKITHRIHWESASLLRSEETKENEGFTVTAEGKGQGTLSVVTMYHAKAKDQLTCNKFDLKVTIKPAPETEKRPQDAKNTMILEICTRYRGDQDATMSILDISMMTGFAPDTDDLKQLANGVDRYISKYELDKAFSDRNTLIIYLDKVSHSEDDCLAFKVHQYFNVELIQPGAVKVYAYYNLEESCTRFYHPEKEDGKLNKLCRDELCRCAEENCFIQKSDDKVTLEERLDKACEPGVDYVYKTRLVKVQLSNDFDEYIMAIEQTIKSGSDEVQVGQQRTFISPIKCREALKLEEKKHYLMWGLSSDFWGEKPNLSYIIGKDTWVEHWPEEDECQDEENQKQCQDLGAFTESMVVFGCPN

Kd	Binder
6.6 nM	B1
4.8 nM	B2
7.6 nM	B3
2.8 nM	B4
7.4 nM	B5

These binders were tested against T1, Human C3 (Complement tech cat #A113c) (assay: cell-based or functional assay).

Binder	inhibition of hemolysis IC50
B1	< 100 nM
B2	< 100 nM
B3	< 100 nM
B4	< 100 nM
B5	< 100 nM
